Measured values published in patent US20220169714A1 (published 2022).
Changes are numbered by the printed parent chain. Each block holds one binder with its values, some of them ahead of it.

Tests used:
[1] = target: T1, recombinant human CXCL1 protein (human, UniProt P09341 35-107); experiment: apparent affinity-binding constant, in serum 1:40 dilution; method not stated (FIG. 1B); serum, 1:40 dilution
T1 sequence: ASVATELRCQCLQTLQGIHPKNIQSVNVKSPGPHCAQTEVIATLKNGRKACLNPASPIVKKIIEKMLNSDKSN

[2] = target: T1, recombinant human CXCL1 protein; experiment: apparent affinity-binding constant, in PBS; method not stated (FIG. 1B); in PBS
rat CXCL1 = target: T2, rat CXCL1 (rat, UniProt P14095 25-96, limits assumed); experiment: Western blot: recombinant CXCL1 loaded at 10, 20 and 30 ng, probed with HL2401
T2 sequence (looked up): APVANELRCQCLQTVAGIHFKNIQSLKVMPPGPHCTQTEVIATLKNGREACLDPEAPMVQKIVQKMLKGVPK

mouse CXCL1 = target: T3, mouse CXCL1 (mouse, UniProt P12850 25-96, limits assumed); experiment: as above
T3 sequence (looked up): T2 sequence (looked up) with V3I, V15M, F20L, M29L, P31S, M58L

[3] = target: T1, recombinant human CXCL1 protein; experiment: apparent affinity-binding constant, in serum 1:4 dilution; method not stated (FIG. 1B); serum, 1:4 dilution
[4] = target: T1, recombinant human CXCL1 protein; experiment: ELISA on coated human CXCL1 against coated BSA, scFv at 10 and 2 ug/mL, anti-Myc HRP, TMB
Protocol: The human CxCL1 protein was coated onto 96-well, 30 ng for well at 4° C. overnight. The plate was blocked by 3% skim milk in PBS 2 h at room temperature. The plate was washed 3 times with PBST and applied anti-human CXCL1 humanized version scFv antibodies at different dilution concentration. The anti-Myc mouse monoclonal antibody with HRP conjugate antibody was applied and developed with TMB solution.

Kd [1]: 0.252 µg/mL
Kd [2]: 0.176 µg/mL
binding result (rat CXCL1): no binding (tested: 30 ng)
binding result (mouse CXCL1): no binding (tested: 30 ng)
Kd [3]: 0.387 µg/mL
B1: anti-CXCL1 neutralizing monoclonal mouse antibody (HL2401) (antibody, V domains shown)
VH: EVKLVESGAELVKPGASVKLSCKASGYTFTSYYIYWVKQRPGQGLEWIGEIDPSHGGPTFNEKFKNKATLTVDKSSSTAYMQLSSLTSDDSAVYYCTRESGTGAMDYWGQGTTLTVSS
VL: DIVLTQSPASLAVSLGQRATISCKASQSVDYDGDSYVNWYQQKPGQPPKLLIYAASNLESRIPARFSGSGSGTDFTLNILPVEEDDGATYYCQQSSEDPWTFGGGTKLEIKR
notes: Mouse IgG from hybridoma clone HL2401, purified on protein G; also called CXCL1 mAb (HL2401); CXCL1 monoclonal antibody (HL2401)

binding result [4]: binds
B2: HUM2401-ScFv_1 (humanized version 2) (scFv)
scFv: QVQLVESGGGLVQPGGSLRLSCKASGYTFTSYYIYWVRQAPGKGLEWIGEIDPSHGGPTFNEKFKNRFTISRDNSKNTLYLQMNSLRAEDTAVYYCTRESGTGAMDYWGQGTLVTVSSGGGGSGGGGSGGGARGGGGSDIQMTQSPSSLSASVGDRATISCKASQSVDYDGDSYVNWYQQKPGKAPKLLIYAASNLESGIPSRFSGSGSGTDFTLTISSLQPEDFATYYCQQSSEDPWTFGQGTKVEIKR
notes: Detected through a c-Myc tag; also called HumH2401scFv; Hum HL2401_scFv
